PMC4709122 (Nature structural & molecular biology, 2015)

Columns and labels:
Test in all cases: fluorescence polarisation
[1] = biological target: UBC9–SUMO2^B non-covalent complex (human, UniProt P63279;P61956)
[2] = biological target: SUMO2 (construct not stated for this experiment) (human, UniProt P61956 1-95)
[3] = biological target: UBC9 (human SUMO E2, untagged) (human, UniProt P63279 1-158)
Sequence of UBC9 (human SUMO E2, untagged) (P63279 whole entry): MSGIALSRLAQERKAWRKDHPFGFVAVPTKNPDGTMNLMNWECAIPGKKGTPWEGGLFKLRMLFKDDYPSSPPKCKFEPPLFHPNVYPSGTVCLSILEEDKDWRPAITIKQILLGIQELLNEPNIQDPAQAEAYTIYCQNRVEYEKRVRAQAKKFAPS

Kd [1]: 2000 nM
Kd [2]: 120 to 150 µM
Kd [3]: 10 to 16 µM
B1: Alexa488-labeled CysZNF451(2–56) (domain or fragment)
chain: CGDPGSEIIESVPPAGPEASESTTDENEDDIQFVSEGPLRPVLEYIDLVSSDDEEP
modifications: Alexa488-maleimide on the single engineered N-terminal cysteine
